Results: patent US20240218057A1
pKd: −log10 of the molar value.

Tests used:
[1] = target: SARS-COV-2 RBD (SARS-COV-2) (UniProt P0DTC2); assay: ELISA, RBD coated
[2] = target: SARS-CoV-2 receptor-binding domain (WT RBD; S protein residues 319-539) (SARS-CoV-2) (UniProt P0DTC2); assay: BLI (Octet Red), IgG on protein A biosensor, WT RBD in solution, 1:1 fit

C144 (antibody)
EC50 [1]: 1.83 ng/mL | pKd [2]: 6.15
